This assay addresses T1, 人CD40 (BJAB细胞) (human, UniProt P25942 21-277).
T1 construct: whole, on cells; On the surface of BJAB cells in FACS and in the functional assays; also called 细胞膜表面的CD40; 人CD40分子
The experiment in a line: Western blot, hybridoma supernatant as primary antibody, HRP anti-mouse IgG secondary. (In general: Immunoblotting shows a protein as a band on a membrane.)

The values below come from CN109384845A (SHANGHAI INST BIOLOGICAL SCIENCES CAS, dated 2019).

T1 sequence (P25942 21-277): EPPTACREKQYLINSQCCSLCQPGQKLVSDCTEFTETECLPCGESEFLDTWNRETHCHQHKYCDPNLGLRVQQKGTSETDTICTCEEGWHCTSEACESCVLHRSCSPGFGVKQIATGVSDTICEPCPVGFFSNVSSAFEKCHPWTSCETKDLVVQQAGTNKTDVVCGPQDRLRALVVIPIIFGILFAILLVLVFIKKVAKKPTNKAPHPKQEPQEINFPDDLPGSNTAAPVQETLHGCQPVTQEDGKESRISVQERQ

B1: CD40单克隆抗体 No.3 (antibody, V domains shown)
VH: EVQLQQSGPELVKPGASVKIVCKASGYTFTDYNMDWVKQSHGKSLEWIGDINPKNGGIIYNQKFKGKATLTVDKSSSTAYMELRSLTSEDTAVYYCVRRFAYWGQGTTVTVSS
VL: DIELTQSPTTMAASPGEKITITCSASSSISSNYLHWYQQKPGFSPKLLIYRTSNLAYGVPARFSGSGSGTSYSLTIGTMEAEDVATYYCQQGSSIPYTFGGGTKLEIKR
notes: Mouse hybridoma antibody, tested as culture supernatant
Regarding B1, the binding result is reported as “binds”.
